Data reported in publication doi:10.1101/2021.05.23.445348.
pKd: −log10 of the molar value.

Target: SARS-CoV-2 spike receptor binding domain, wild type (SARS-CoV-2) (UniProt P0DTC2)
Experiment: ITC

Substance: CC12.1 single chain variable fragment (scFv)
- pKd: 7.55
- dH: 4.8 kcal/mol
- stoichiometry N: 1
